According to PMC9482650, “Quantitative fragmentomics allow affinity mapping of interactomes” (Nature Communications, 2022):
Substitutions are numbered along the chain they refer to.

T1: SNTA1, Q13424
T1 sequence (Q13424 82-180, limits assumed, looked up): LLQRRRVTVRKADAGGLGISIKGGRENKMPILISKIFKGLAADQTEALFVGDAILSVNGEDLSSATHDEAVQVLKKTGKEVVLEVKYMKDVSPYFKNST

T2: MPP2, Q14168
T2 sequence (Q14168 180-250, limits assumed, looked up): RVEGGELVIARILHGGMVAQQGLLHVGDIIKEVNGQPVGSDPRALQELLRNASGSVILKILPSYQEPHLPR

T3: MPP6, Q9NZW5
T3 sequence (Q9NZW5 125-219, limits assumed, looked up): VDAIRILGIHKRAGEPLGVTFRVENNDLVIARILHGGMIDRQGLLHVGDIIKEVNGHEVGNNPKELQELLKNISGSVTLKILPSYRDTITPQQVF

T4: PCLO, Q9Y6V0
T4 sequence (Q9Y6V0 4491-4600, limits assumed, looked up): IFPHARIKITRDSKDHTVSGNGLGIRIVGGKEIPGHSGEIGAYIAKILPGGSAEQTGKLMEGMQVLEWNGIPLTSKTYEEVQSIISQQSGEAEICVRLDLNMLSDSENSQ

T5: APBA2_2, Q99767
T5 sequence (Q99767 654-744, limits assumed, looked up): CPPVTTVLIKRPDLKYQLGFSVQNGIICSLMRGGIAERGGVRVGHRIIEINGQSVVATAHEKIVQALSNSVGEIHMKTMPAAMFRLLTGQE

T6: ARHGAP21, Q5T5U3
T6 sequence (Q5T5U3 45-169, limits assumed, looked up): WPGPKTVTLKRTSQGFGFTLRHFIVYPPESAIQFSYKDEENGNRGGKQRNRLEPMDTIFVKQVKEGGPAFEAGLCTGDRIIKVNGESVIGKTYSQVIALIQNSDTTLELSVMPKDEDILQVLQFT

T7: NHERF3_3, Q5T2W1
T7 sequence (Q5T2W1 238-333, limits assumed, looked up): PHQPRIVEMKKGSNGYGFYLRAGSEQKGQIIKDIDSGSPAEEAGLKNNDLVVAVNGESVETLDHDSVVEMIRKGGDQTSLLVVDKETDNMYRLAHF

T8: GRIP1_4, Q9Y3R0
T8 sequence (Q9Y3R0 467-571, limits assumed, looked up): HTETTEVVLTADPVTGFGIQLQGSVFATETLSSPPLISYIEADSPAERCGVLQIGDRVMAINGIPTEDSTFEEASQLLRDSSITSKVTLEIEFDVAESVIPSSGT

T9: APBA1_2, Q02410
T9 sequence (Q02410 742-832, limits assumed, looked up): T5 sequence (Q99767 654-744, limits assumed, looked up) with K10R, K15R, A59P, Q65H, A66I, S70A, F84Y, G89A


Each binder was assayed against TJP2_1, Q9UDY2 (assay: holdup assay). Settings: plain residues with an end cap or a label only (N-terminal biotin on a linker: ado-ado).
Chain of TJP2_1, Q9UDY2 (Q9UDY2 24-128): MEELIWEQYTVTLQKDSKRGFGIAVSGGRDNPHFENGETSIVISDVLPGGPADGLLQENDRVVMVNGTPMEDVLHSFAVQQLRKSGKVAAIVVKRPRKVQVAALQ
Design: key: below the threshold = too weak to quantify, mostly under pKd 3.1 to 4
For QSPPNIYYKV [EFNB3, Q15768], the pKd was “below the threshold”. With DSATVRTYSC [PPFIA1, Q13136] the pKd was “below the threshold”.

What follows are binders tested against DLG2_2, Q15700 (assay: holdup assay). Settings: plain residues with an end cap or a label only (N-terminal biotin on a linker: ado-ado).
Chain of DLG2_2, Q15700 (Q15700 189-283): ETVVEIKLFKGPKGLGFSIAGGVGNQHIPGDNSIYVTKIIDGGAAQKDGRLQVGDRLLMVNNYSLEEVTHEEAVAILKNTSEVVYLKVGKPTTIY
Design: key: below the threshold = too weak to quantify, mostly under pKd 3.1 to 4
In the case of QSPPNIYYKV [EFNB3, Q15768], the pKd is reported as “below the threshold”. For DSATVRTYSC [PPFIA1, Q13136], the pKd was “below the threshold”.

The binders below were run against T1, SNTA1, Q13424 (assay: holdup assay). Settings: plain residues with an end cap or a label only (N-terminal biotin on a linker: ado-ado).
Design: key: below the threshold = too weak to quantify, mostly under pKd 3.1 to 4
With QSPPNIYYKV [EFNB3, Q15768] the pKd was “below the threshold”. For DSATVRTYSC [PPFIA1, Q13136], the pKd was “below the threshold”.

These binders were tested against T2, MPP2, Q14168 (assay: holdup assay). Settings: plain residues with an end cap or a label only (N-terminal biotin on a linker: ado-ado).
Design: key: below the threshold = too weak to quantify, mostly under pKd 3.1 to 4
With QSPPNIYYKV [EFNB3, Q15768] the pKd was “below the threshold”. With DSATVRTYSC [PPFIA1, Q13136] the pKd was “below the threshold”.

These binders were tested against Inadl_2, Q8NI35 (assay: holdup assay). Settings: plain residues with an end cap or a label only (N-terminal biotin on a linker: ado-ado).
Chain of Inadl_2, Q8NI35 (Q8NI35 238-335): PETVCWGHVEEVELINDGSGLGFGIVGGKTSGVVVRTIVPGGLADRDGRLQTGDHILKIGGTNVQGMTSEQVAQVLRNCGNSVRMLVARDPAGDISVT
Design: key: below the threshold = too weak to quantify, mostly under pKd 3.1 to 4
In the case of QSPPNIYYKV [EFNB3, Q15768], the pKd is reported as “below the threshold”. With DSATVRTYSC [PPFIA1, Q13136] the pKd was “below the threshold”.

Each binder was assayed against DLG1_1, Q12959 (assay: holdup assay). Settings: plain residues with an end cap or a label only (N-terminal biotin on a linker: ado-ado).
Design: key: below the threshold = too weak to quantify, mostly under pKd 3.1 to 4
In the case of QSPPNIYYKV [EFNB3, Q15768], the pKd is reported as “below the threshold”. For DSATVRTYSC [PPFIA1, Q13136], the pKd was “below the threshold”.

What follows are binders tested against MAGI3_2, Q5TCQ9 (assay: holdup assay). Settings: plain residues with an end cap or a label only (N-terminal biotin on a linker: ado-ado).
Chain of MAGI3_2, Q5TCQ9 (Q5TCQ9 398-503): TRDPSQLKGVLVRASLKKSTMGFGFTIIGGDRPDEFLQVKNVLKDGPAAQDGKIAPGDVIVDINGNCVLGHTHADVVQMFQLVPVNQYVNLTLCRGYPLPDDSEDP
Design: key: below the threshold = too weak to quantify, mostly under pKd 3.1 to 4
With QSPPNIYYKV [EFNB3, Q15768] the pKd was “below the threshold”. With DSATVRTYSC [PPFIA1, Q13136] the pKd was “below the threshold”.

Each binder was assayed against MAGI2_6, Q86UL8 (assay: holdup assay). Settings: plain residues with an end cap or a label only (N-terminal biotin on a linker: ado-ado).
Chain of MAGI2_6, Q86UL8 (Q86UL8 1141-1229): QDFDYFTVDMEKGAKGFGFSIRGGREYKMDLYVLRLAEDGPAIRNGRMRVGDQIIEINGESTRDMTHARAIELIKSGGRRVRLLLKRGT
Design: key: below the threshold = too weak to quantify, mostly under pKd 3.1 to 4
For QSPPNIYYKV [EFNB3, Q15768], the pKd was “below the threshold”. With DSATVRTYSC [PPFIA1, Q13136] the pKd was “below the threshold”.

These binders were tested against T3, MPP6, Q9NZW5 (assay: holdup assay). Settings: plain residues with an end cap or a label only (N-terminal biotin on a linker: ado-ado).
Design: key: below the threshold = too weak to quantify, mostly under pKd 3.1 to 4
With QSPPNIYYKV [EFNB3, Q15768] the pKd was “below the threshold”. With DSATVRTYSC [PPFIA1, Q13136] the pKd was “below the threshold”.

What follows are binders tested against T4, PCLO, Q9Y6V0 (assay: holdup assay). Settings: plain residues with an end cap or a label only (N-terminal biotin on a linker: ado-ado).
Design: key: below the threshold = too weak to quantify, mostly under pKd 3.1 to 4
For QSPPNIYYKV [EFNB3, Q15768], the pKd was “below the threshold”. With DSATVRTYSC [PPFIA1, Q13136] the pKd was “below the threshold”.

The binders below were run against MAGI2_4, Q86UL8 (assay: holdup assay). Settings: plain residues with an end cap or a label only (N-terminal biotin on a linker: ado-ado).
Chain of MAGI2_4, Q86UL8 (Q86UL8 772-865): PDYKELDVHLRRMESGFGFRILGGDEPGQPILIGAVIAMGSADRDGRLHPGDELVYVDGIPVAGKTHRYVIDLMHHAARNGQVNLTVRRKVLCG
Design: key: below the threshold = too weak to quantify, mostly under pKd 3.1 to 4
For QSPPNIYYKV [EFNB3, Q15768], the pKd was 3.69. DSATVRTYSC [PPFIA1, Q13136] was tested, and the pKd was “below the threshold”.

These binders were tested against GRIP2_3, Q9C0E4 (assay: holdup assay). Settings: plain residues with an end cap or a label only (N-terminal biotin on a linker: ado-ado).
Chain of GRIP2_3, Q9C0E4 (Q9C0E4 238-339): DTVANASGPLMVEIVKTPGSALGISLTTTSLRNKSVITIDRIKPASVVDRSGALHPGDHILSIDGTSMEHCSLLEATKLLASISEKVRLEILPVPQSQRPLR
Design: key: below the threshold = too weak to quantify, mostly under pKd 3.1 to 4
QSPPNIYYKV [EFNB3, Q15768] was tested, and the pKd was “below the threshold”. For DSATVRTYSC [PPFIA1, Q13136], the pKd was “below the threshold”.

The binders below were run against LIMK2, P53671 (assay: holdup assay). Settings: plain residues with an end cap or a label only (N-terminal biotin on a linker: ado-ado).
Chain of LIMK2, P53671 (P53671 143-248): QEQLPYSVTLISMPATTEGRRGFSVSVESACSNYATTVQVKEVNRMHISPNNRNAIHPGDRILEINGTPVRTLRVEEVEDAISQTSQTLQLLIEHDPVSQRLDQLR
Design: key: below the threshold = too weak to quantify, mostly under pKd 3.1 to 4
With QSPPNIYYKV [EFNB3, Q15768] the pKd was “below the threshold”. In the case of DSATVRTYSC [PPFIA1, Q13136], the pKd is reported as “below the threshold”.

What follows are binders tested against T5, APBA2_2, Q99767 (assay: holdup assay). Settings: plain residues with an end cap or a label only (N-terminal biotin on a linker: ado-ado).
Design: key: below the threshold = too weak to quantify, mostly under pKd 3.1 to 4
In the case of QSPPNIYYKV [EFNB3, Q15768], the pKd is reported as “below the threshold”. DSATVRTYSC [PPFIA1, Q13136] was tested, and the pKd was “below the threshold”.

The binders below were run against FRMPD4, Q14CM0 (assay: holdup assay). Settings: plain residues with an end cap or a label only (N-terminal biotin on a linker: ado-ado).
Chain of FRMPD4, Q14CM0 (Q14CM0 67-160): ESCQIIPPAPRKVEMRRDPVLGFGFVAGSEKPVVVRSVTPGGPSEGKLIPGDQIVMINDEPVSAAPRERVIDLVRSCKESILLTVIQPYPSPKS
Design: key: below the threshold = too weak to quantify, mostly under pKd 3.1 to 4
QSPPNIYYKV [EFNB3, Q15768] was tested, and the pKd was 4.01. Work on DSATVRTYSC [PPFIA1, Q13136] yielded a pKd of 3.8.

Each binder was assayed against T6, ARHGAP21, Q5T5U3 (assay: holdup assay). Settings: plain residues with an end cap or a label only (N-terminal biotin on a linker: ado-ado).
Design: key: below the threshold = too weak to quantify, mostly under pKd 3.1 to 4
For QSPPNIYYKV [EFNB3, Q15768], the pKd was “below the threshold”. DSATVRTYSC [PPFIA1, Q13136] was tested, and the pKd was “below the threshold”.

What follows are binders tested against GORASP2, Q9H8Y8 (assay: holdup assay). Settings: plain residues with an end cap or a label only (N-terminal biotin on a linker: ado-ado).
Design: key: below the threshold = too weak to quantify, mostly under pKd 3.1 to 4
QSPPNIYYKV [EFNB3, Q15768] was tested, and the pKd was 4.99. In the case of DSATVRTYSC [PPFIA1, Q13136], the pKd is reported as 3.62.

What follows are binders tested against IL16_4, Q14005 (assay: holdup assay). Settings: plain residues with an end cap or a label only (N-terminal biotin on a linker: ado-ado).
Chain of IL16_4, Q14005 (Q14005 1229-1329): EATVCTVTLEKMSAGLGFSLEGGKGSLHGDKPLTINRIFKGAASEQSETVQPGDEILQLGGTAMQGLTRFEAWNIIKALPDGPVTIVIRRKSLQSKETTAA
Design: key: below the threshold = too weak to quantify, mostly under pKd 3.1 to 4
QSPPNIYYKV [EFNB3, Q15768] was tested, and the pKd was 3.76. Work on DSATVRTYSC [PPFIA1, Q13136] yielded a pKd of 3.54.

Each binder was assayed against DLG4_1, P78352 (assay: holdup assay). Settings: plain residues with an end cap or a label only (N-terminal biotin on a linker: ado-ado).
Chain of DLG4_1, P78352 (P78352 62-152): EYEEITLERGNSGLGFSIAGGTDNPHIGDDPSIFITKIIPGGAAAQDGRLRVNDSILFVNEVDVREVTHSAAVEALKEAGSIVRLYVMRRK
Design: key: below the threshold = too weak to quantify, mostly under pKd 3.1 to 4
QSPPNIYYKV [EFNB3, Q15768] was tested, and the pKd was “below the threshold”. For DSATVRTYSC [PPFIA1, Q13136], the pKd was “below the threshold”.

What follows are binders tested against ARHGEF12, Q9NZN5-2 (assay: holdup assay). Settings: plain residues with an end cap or a label only (N-terminal biotin on a linker: ado-ado).
Chain of ARHGEF12, Q9NZN5-2 (Q9NZN5 other isoform, or with tags, fused parts or gaps): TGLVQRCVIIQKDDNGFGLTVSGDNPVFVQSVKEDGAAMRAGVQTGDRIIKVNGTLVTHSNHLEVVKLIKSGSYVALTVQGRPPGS
Design: key: below the threshold = too weak to quantify, mostly under pKd 3.1 to 4
With QSPPNIYYKV [EFNB3, Q15768] the pKd was “below the threshold”. In the case of DSATVRTYSC [PPFIA1, Q13136], the pKd is reported as “below the threshold”.

The binders below were run against NHERF2_2, Q15599 (assay: holdup assay). Settings: plain residues with an end cap or a label only (N-terminal biotin on a linker: ado-ado).
Chain of NHERF2_2, Q15599 (Q15599 142-238): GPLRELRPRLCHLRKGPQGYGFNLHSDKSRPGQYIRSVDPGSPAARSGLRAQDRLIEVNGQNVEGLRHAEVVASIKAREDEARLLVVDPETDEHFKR
Design: key: below the threshold = too weak to quantify, mostly under pKd 3.1 to 4
Binder QSPPNIYYKV [EFNB3, Q15768] has a pKd of 3.56. DSATVRTYSC [PPFIA1, Q13136] was tested, and the pKd was “below the threshold”.

Each binder was assayed against T7, NHERF3_3, Q5T2W1 (assay: holdup assay). Settings: plain residues with an end cap or a label only (N-terminal biotin on a linker: ado-ado).
Design: key: below the threshold = too weak to quantify, mostly under pKd 3.1 to 4
QSPPNIYYKV [EFNB3, Q15768] was tested, and the pKd was “below the threshold”. With DSATVRTYSC [PPFIA1, Q13136] the pKd was “below the threshold”.

Each binder was assayed against CASK, O14936 (assay: holdup assay). Settings: plain residues with an end cap or a label only (N-terminal biotin on a linker: ado-ado).
Chain of CASK, O14936 (O14936 487-570): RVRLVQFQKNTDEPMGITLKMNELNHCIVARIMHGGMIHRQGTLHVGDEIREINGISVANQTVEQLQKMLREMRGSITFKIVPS
Design: key: below the threshold = too weak to quantify, mostly under pKd 3.1 to 4
For QSPPNIYYKV [EFNB3, Q15768], the pKd was “below the threshold”. DSATVRTYSC [PPFIA1, Q13136] was tested, and the pKd was “below the threshold”.

These binders were tested against T8, GRIP1_4, Q9Y3R0 (assay: holdup assay). Settings: plain residues with an end cap or a label only (N-terminal biotin on a linker: ado-ado).
Design: key: below the threshold = too weak to quantify, mostly under pKd 3.1 to 4
In the case of QSPPNIYYKV [EFNB3, Q15768], the pKd is reported as “below the threshold”. With DSATVRTYSC [PPFIA1, Q13136] the pKd was “below the threshold”.

The binders below were run against FRMPD2_1, Q68DX3 (assay: holdup assay). Settings: plain residues with an end cap or a label only (N-terminal biotin on a linker: ado-ado).
Chain of FRMPD2_1, Q68DX3 (Q68DX3 770-861): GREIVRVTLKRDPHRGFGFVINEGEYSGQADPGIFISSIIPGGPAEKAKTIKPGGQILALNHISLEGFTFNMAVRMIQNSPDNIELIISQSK
Design: key: below the threshold = too weak to quantify, mostly under pKd 3.1 to 4
Binder QSPPNIYYKV [EFNB3, Q15768] has a pKd of 3.79. DSATVRTYSC [PPFIA1, Q13136] gave a pKd of 4.49.

These binders were tested against PDLIM1, O00151 (assay: holdup assay). Settings: plain residues with an end cap or a label only (N-terminal biotin on a linker: ado-ado).
Chain of PDLIM1, O00151 (O00151 1-87): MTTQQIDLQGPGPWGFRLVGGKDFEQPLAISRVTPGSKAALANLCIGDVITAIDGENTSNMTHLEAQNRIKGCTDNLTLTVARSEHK
Design: key: below the threshold = too weak to quantify, mostly under pKd 3.1 to 4
In the case of QSPPNIYYKV [EFNB3, Q15768], the pKd is reported as “below the threshold”. For DSATVRTYSC [PPFIA1, Q13136], the pKd was “below the threshold”.

Each binder was assayed against GRID2IP_1, A4D2P6 (assay: holdup assay). Settings: plain residues with an end cap or a label only (N-terminal biotin on a linker: ado-ado).
Chain of GRID2IP_1, A4D2P6 (A4D2P6 1-87): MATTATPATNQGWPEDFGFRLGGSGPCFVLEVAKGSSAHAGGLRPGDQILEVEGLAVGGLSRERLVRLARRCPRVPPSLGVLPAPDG
Design: key: below the threshold = too weak to quantify, mostly under pKd 3.1 to 4
With QSPPNIYYKV [EFNB3, Q15768] the pKd was “below the threshold”. With DSATVRTYSC [PPFIA1, Q13136] the pKd was “below the threshold”.

These binders were tested against T9, APBA1_2, Q02410 (assay: holdup assay). Settings: plain residues with an end cap or a label only (N-terminal biotin on a linker: ado-ado).
Design: key: below the threshold = too weak to quantify, mostly under pKd 3.1 to 4
In the case of QSPPNIYYKV [EFNB3, Q15768], the pKd is reported as 3.47. DSATVRTYSC [PPFIA1, Q13136] was tested, and the pKd was “below the threshold”.
